{
  "source": "patent US20260209387A1",
  "about": "“SINGLE-DOMAIN ANTIBODY FOR INHIBITION OF NEUTROPHIL ELASTASE ACTIVITY” (UNIVERSITE DE LIEGE, priority 2023, published 2026)",
  "molecules": {"B1": {"name": "NbE201: anti-hNE ISVD (VHH/nanobody) from immunized lama, amino acid sequence SEQ ID NO: 4 (protein)", "VHH": "QVQLQESGGGLVQAGGSLRLSCVVPGRTISLYRMGWFRQAPGKEREFVAGINWSGDMTDYVDSVKGRFTISRDNAKNTVYLEMNSLKPEDTAIYYCTADPKLLPLADSSYGYWGQGTQVTVSS"}},
  "key": {"[1]": {"target": "T1, porcine pancreatic elastase (pPE) (Sus scrofa, UniProt P00772)", "T1 construct": "purchased Sigma", "T1 sequence (P00772 27-266)": "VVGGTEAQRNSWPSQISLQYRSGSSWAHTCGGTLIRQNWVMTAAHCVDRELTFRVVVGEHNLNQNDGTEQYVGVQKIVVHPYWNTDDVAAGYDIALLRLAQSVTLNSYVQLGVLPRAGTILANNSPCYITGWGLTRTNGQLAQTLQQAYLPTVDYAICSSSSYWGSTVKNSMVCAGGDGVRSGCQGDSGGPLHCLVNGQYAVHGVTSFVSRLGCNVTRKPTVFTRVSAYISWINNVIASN", "experiment": "pPE inhibition, substrate Succinyl-Ala-Ala-Ala-paraNitroAnilide", "type": "biochemical", "settings": "chromogenic substrate", "from_the_text": "To determine whether NbE201 was specific for hNE, we first investigated its ability to inhibit several serine proteases: pancreatic elastase from pork (pPE, 39.2% sequence identity, from Sigma), mice neutrophil elastase (mNE, 74.9% sequence identity, from EPC) and with two other human serine proteases present in the lung: proteinase 3 (hPR3 from EPC, 54.7% sequence identity) and cathepsin G (hCG from Calbiochem, 36.7% sequence identity). The substrate used were Succinyl-Ala-Ala-Ala-paraNitroAnilide (1 mM in 0.1 M Tris pH 7.5 with NaCl 0.5 M and NaN3 0.01%, % w/v from Sigma-Aldrich) for pPE, MeOSuc-Ala-Ala-Pro-Val-AMC (100 μM in Tris 50 mM, NaCl 1 M, 0.05% (% w/v) Brij-35, pH 7.5) for mNE, N-Succinyl-Ala-Ala-Pro-Phe p-nitroanilide (0.45 mM in 100 mM HEPES pH 7.5, from Sigma Aldrich) for hCG and Boc-Ala-Ala-Nva-SBzl (0.22 mM in 100 mM MOPS pH 5.0 0.5 M NaCl, 100 μM DTNB, DMSO 10%, from EPC) for PR3. mNE (rmELA2 from R&D systems, United Kingdom) was first activated according to the supplier information. In brief, mNE was incubated with recombinant mouse active cathepsin C/DPPIy (rmCathepsin C from R&D systems) in MES 50 mM, NaCl 50 mM, pH 5.5 for 2 h at 37° C. The enzyme concentration in the assay was 6 nM, 14.7 nM, 25 nM, 5 nM for PPE, mNE, hCG and hPR3, respectively. Different molar ratios of NbE201: Enzyme were tested. […]"}, "[2]": {"experiment": "Heat-induced unfolding by far UV-CD at 206 nm", "type": "physicochemical", "settings": "far UV-CD 206 nm; average of three batches; pH 7", "procedure": "1.12.1. Preparation of the samples and measurements. Samples of NbE201 in 0.05 M NaP buffer pH 7 were prepared at a protein concentration of 0.2 mg mL-1. All the experiments were carried out in 1 mm quartz cell and a JASCO J-810 CD spectrophotometer equipped with a Peltier cell-holder. Mineral oil was added on the top of the sample to avoid sample evaporation. The CD spectrum of the native and denatured states of the protein were recorded from 190 nm to 260 nm at 25° C. and at 97° C. 61 data points were recorded with a 1 nm data interval, a data pitch of 0.1 nm, 2 s integration time, a bandwidth of 1 nm and a scanning speed of 50 nm/min. Heat-induced unfolding was monitored by far UV-CD at 206 nm. […] Data were acquired with a reading frequency of 0.05 s^−1 using a 4 s integration time and a 1 nm bandwidth. […]\n1.12.2. […] The transition curves obtained were analyzed based on a two-state (N ? U) model and Equation 1 where x is the temperature during the analysis and a=−(ΔHm (1−x/Tm))/RT (doi: 10.1016/j.jmb.2008.11.046), and yobs is the CD signal at 206 nm at a given temperature (x), and YN and YU are the values of these signals for the native and denatured states, respectively at 273K. p and q are the slopes of the pre- and post-transition baselines, respectively, R is the gas constant, and T is the absolute temperature. […]"}, "[3]": {"target": "T2, hNE (Homo sapiens, UniProt P08246)", "T2 construct": "purchased Elastin Products Company (EPC)", "T2 sequence (P08246 30-247)": "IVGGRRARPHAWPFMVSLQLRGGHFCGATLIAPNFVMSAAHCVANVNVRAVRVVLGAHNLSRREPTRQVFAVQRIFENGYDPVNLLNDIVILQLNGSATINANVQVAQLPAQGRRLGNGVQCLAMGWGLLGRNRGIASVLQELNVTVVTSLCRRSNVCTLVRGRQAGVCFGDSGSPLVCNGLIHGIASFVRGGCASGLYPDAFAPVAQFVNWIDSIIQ", "experiment": "Stability of NbE201 towards hNE (SDS-PAGE, 37° C.)", "type": "in vitro ADME", "procedure": "NbE201 (26.4 μM) was incubated at 37° C. alone or in the presence of hNE ([NbE201]: [hNE]=4:1). Aliquots (10 μL) taken at different time intervals were mixed with 4 μL of sample loading buffer (Tris-HCl (pH 6.8), SDS denaturant (4%, % w/v), β-mercaptoethanol (5%, % v/v), bromophenol blue (0.01%, % w/v), glycerol (20%, % v/v), H2O)) and then stored at −20° C. until analysis by SDS-PAGE using 4-20% Mini-PROTEAN TGX Protein Gel, 10 wells, 50 μL (Bio-Rad, Germany). Then, the gel was stained by Coomassie blue, destained in water and imaged using a Gel Doc EZ Imager (Biorad). The relative amount of intact protein was quantified by densitometry analysis with a Gel Doc EZ Imager program using the intensity of the band at time zero as the relative standard. hNE alone was incubated on similar conditions and an aliquot was taken at different time points to measure its activity using N-Succinyl-Ala-Ala-Ala-paraNitroAnilide as substrate as describe above."}, "[4]": {"target": "T1, porcine pancreatic elastase (pPE)", "experiment": "BLI binding to other serine proteases: pPE", "settings": "50 nM protease", "procedure": "The specificity of NbE201 for hNE was also investigated by BLI. Biotinylated NbE201 (10 μg/mL) was immobilized on streptavidin biosensors (SA, Sartorius) following provider's indications. The biosensors were then immersed in a 50 nM solution of a serine protease. The proteases tested were human cathepsin G (hCG), human proteinase 3 (hPR3), mouse pancreatic elastase (mPE), mouse neutrophil elastase (mNE) and porcine pancreatic elastase (pPE). hNE was used a positive control. The association and dissociation were measured for 70 s and 320 s respectively, in kinetic buffer (KB, Sartorius). The experiments were carried out at 30° C. in 384-wells black-bottom microplates in polypropylene (Greiner Bio-One, Belgium) and with orbital agitation (1000 rpm)."}},
  "data": [
    {"molecule": "B1", "values": [
      {"measurement": "inhibition of porcine pancreatic elastase", "setting": "[1]", "result": "does not inhibit"},
      {"measurement": "apparent temperature of unfolding (Tm^app)", "setting": "[2]", "result": "70.7±1.5", "unit": "°C"},
      {"measurement": "time NbE201 is stable in presence of hNE", "setting": "[3]; 37° C., [NbE201]:[hNE] 4:1", "result": 14, "unit": "days"},
      {"measurement": "percentage of remaining complex (intact NbE201) over time", "setting": "[3]; in presence of hNE, [NbE201]:[hNE] 4:1, 37° C., 14 days", "result": "around 100%"},
      {"measurement": "binding to pPE by BLI", "setting": "[4]", "result": "does not bind to the other proteases"}
    ]}
  ]
}
